The target of assay [1] is HLA-A3 molecule on the T2-A3 cell line. Put plainly: T2-A3 MHC stabilisation, w6/32 indirect immunofluorescence, flow cytometry; peptide at 1 uM.
For assay [2] the target is unchanged. As to the kind of experiment: T2-A3 MHC stabilisation, w6/32 indirect immunofluorescence, flow cytometry; peptide at 100 uM. A general note: In flow cytometry, cells or beads pass a laser one at a time.
For assay [3] the target is unchanged. Put plainly: T2-A3 MHC stabilisation, w6/32 indirect immunofluorescence, flow cytometry; peptide at 10 uM.

B1: HLA-A3 (5-13) peptide, based on CDR-H3 positions 5-13 of 105AD7 (peptide)
peptide: DFWSGYLEY
For the molecule B1, the Expression of MHC (FR), fluorescence ratio in assay [1] amounted to 1.8; in assay [2] it was 1.3; in assay [3] it was 1.3.

B2: HLA-A3 (1-10) peptide, based on CDR-H3 positions 1-10 of 105AD7 (peptide)
peptide: VLYYDFWSGY
Take B2: the Expression of MHC (FR), fluorescence ratio in assay [1] is 1.2; in assay [2], 1.8; in assay [3], 1.8.

The values are drawn from patent publication WO1997032021A1.
